Data set [1] has as its system HeLa Kyoto. The data set can be described thus: melting temperature (median over replicates), in situ; higher = more thermally stable.
Data set [2] concerns HeLa Kyoto. The data set is described as follows: solubility in G1/S (NP-40 vs SDS abundance) (log2 ratio); higher = more soluble. The conditions noted are these: cell cycle stage: G1/S.
The test system of data set [3] is HeLa Kyoto. The data set is described as follows: solubility change mitosis vs G1/S (difference of NP-40 vs SDS log2 ratios) (log2 ratio difference); higher = more soluble in mitosis.
Data set [4] relates to HeLa Kyoto. The data set can be described thus: thermal stability score vs G1/S (z-score of summed log2 fold changes over temperatures); higher = more thermally stable than in G1/S.
The mark [5] stands for this setting: cell cycle stage: early G1 (4.5 h after nocodazole release).
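Wherever melting temperature (median over replicates), in situ is given: HeLa Kyoto cells synchronized by double thymidine or nocodazole block, proteins quantified by TMT10plex mass spectrometry, three independent biological replicates.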
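Wherever solubility change mitosis vs G1/S (difference of NP-40 vs SDS log2 ratios) is given: synchronized HeLa Kyoto cells (double thymidine block for G1/S, nocodazole release for mitosis), protein amounts in NP-40 versus SDS lysates quantified by mass spectrometry, three biological replicates.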
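Wherever solubility in G1/S (NP-40 vs SDS abundance) is given: HeLa Kyoto cells arrested at G1/S by double thymidine block, proteins quantified by TMT10plex mass spectrometry in mild NP-40 versus SDS extracts, three biological replicates.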
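Wherever thermal stability score vs G1/S (z-score of summed log2 fold changes over temperatures) is given: synchronized HeLa Kyoto cells, proteins quantified by TMT10plex mass spectrometry, three biological replicates, mitosis taken 0.5 h after nocodazole release, G1/S directly after double thymidine block.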

Regarding “MAACGRVRRMFRLSAALHLLLLFAAGAEKLPGQGVHSQGQGPGANFVSFVGQAGGGGPAGQQLPQLPQSSQLQQQQQQQQQQQQPQPPQPPFPAGGPPARRGGAGAGGGWKLAEEESCREDVTRVCPKHTWSNNLAVLECLQDVREPENEISSDCNHLLWNYKLNLTTDPKFESVAREVCKSTITEIKECADEPVGKGYMVSCLVDHRGNITEYQCHQYITKMTAIIFSDYRLICGFMDDCKNDINILKCGSIRLGEKDAHSQGEVVSCLEKGLVKEAEEREPKIQVSELCKKAILRVAELSSDDFHLDRHLYFACRDDRERFCENTQAGEGRVYKCLFNHKFEESMSEKCREALTTRQKLIAQDYKVSYSLAKSCKSDLKKYRCNVENLPRSREARLSYLLMCLESAVHRGRQVSSECQGEMLDYRRMLMEDFSLSPEIILSCRGEIEHHCSGLHRKGRTLHCLMKVVRGEKGNLGMNCQQALQTLIQETDPGADYRIDRALNEACESVIQTACKHIRSGDPMILSCLMEHLYTEKMVEDCEHRLLELQYFISRDWKLDPVLYRKCQGDASRLCHTHGWNETSEFMPQGAVFSCLYRHAYRTEEQGRRLSRECRAEVQRILHQRAMDVKLDPALQDKCLIDLGKWCSEKTETGQELECLQDHLDDLVVECRDIVGNLTELESEDIQIEALLMRACEPIIQNFCHDVADNQIDSGDLMECLIQNKHQKDMNEKCAIGVTHFQLVQMKDFRFSYKFKMACKEDVLKLCPNIKKKVDVVICLSTTVRNDTLQEAKEHRVSLKCRRQLRVEELEMTEDIRLEPDLYEACKSDIKNFCSAVQYGNAQIIECLKENKKQLSTRCHQKVFKLQETEMMDPELDYTLMRVCKQMIKRFCPEADSKTMLQCLKQNKNSELMDPKCKQMITKRQITQNTDYRLNPMLRKACKADIPKFCHGILTKAKDDSELEGQVISCLKLRYADQRLSSDCEDQIRIIIQESALDYRLDPQLQLHCSDEISSLCAEEAAAQEQTGQVEECLKVNLLKIKTELCKKEVLNMLKESKADIFVDPVLHTACALDIKHHCAAITPGRGRQMSCLMEALEDKRVRLQPECKKRLNDRIEMWSYAAKVAPADGFSDLAMQVMTSPSKNYILSVISGSICILFLIGLMCGRITKRVTRELKDR [GLG1]”, the melting temperature stood at 56.3 °C in data set [1] (cell cycle stage: G1/S) and 56.5 °C in data set [1] (cell cycle stage: mitosis). In data set [2], the “solubility in G1/S (log2)” value is -0.0893. For the same sequence, in data set [3], the “solubility change mitosis (log2)” value was -0.0491. In addition, the thermal stability score in data set [4] (setting [5]) is -1.04; in data set [4] (cell cycle stage: mitosis), -1.91.

“MAADSEPESEVFEITDFTTASEWERFISKVEEVLNDWKLIGNSLGKPLEKGIFTSGTWEEKSDEISFADFKFSVTHHYLVQESTDKEGKDELLEDVVPQSMQDLLGMNNDFPPRAHCLVRWYGLREFVVIAPAAHSDAVLSESKCNLLLSSVSIALGNTGCQVPLFVQIHHKWRRMYVGECQGPGVRTDFEMVHLRKVPNQYTHLSGLLDIFKSKIGCPLTPLPPVSIAIRFTYVLQDWQQYFWPQQPPDIDALVGGEVGGLEFGKLPFGACEDPISELHLATTWPHLTEGIIVDNDVYSDLDPIQAPHWSVRVRKAENPQCLLGDFVTEFFKICRRKESTDEILGRSAFEEEGKETADITHALSKLTEPASVPIHKLSVSNMVHTAKKKIRKHRGVEESPLNNDVLNTILLFLFPDAVSEKPLDGTTSTDNNNPPSESEDYNLYNQFKSAPSDSLTYKLALCLCMINFYHGGLKGVAHLWQEFVLEMRFRWENNFLIPGLASGPPDLRCCLLHQKLQMLNCCIERKKARDEGKKTSASDVTNIYPGDAGKAGDQLVPDNLKETDKEKGEVGKSWDSWSDSEEEFFECLSDTEELKGNGQESGKKGGPKEMANLRPEGRLYQHGKLTLLHNGEPLYIPVTQEPAPMTEDLLEEQSEVLAKLGTSAEGAHLRARMQSACLLSDMESFKAANPGCSLEDFVRWYSPRDYIEEEVIDEKGNVVLKGELSARMKIPSNMWVEAWETAKPIPARRQRRLFDDTREAEKVLHYLAIQKPADLARHLLPCVIHAAVLKVKEEESLENISSVKKIIKQIISHSSKVLHFPNPEDKKLEEIIHQITNVEALIARARSLKAKFGTEKCEQEEEKEDLERFVSCLLEQPEVLVTGAGRGHAGRIIHKLFVNAQRAAAMTPPEEELKRMGSPEERRQNSVSDFPPPAGREFILRTTVPRPAPYSKALPQRMYSVLTKEDFRLAGAFSSDTSFF [RAB3GAP1]”: the melting temperature was determined as 48.9 °C in data set [1] (cell cycle stage: G1/S) and 49.4 °C in data set [1] (cell cycle stage: mitosis). Further, the “solubility in G1/S (log2)” value in data set [2] is -0.0664. Besides, the “solubility change mitosis (log2)” value in data set [3] is -0.113. The thermal stability score is -0.345 in data set [4] (setting [5]) and 0.335 in data set [4] (cell cycle stage: mitosis).

“MAAEKQVPGGGGGGGSGGGGGSGGGGSGGGRGAGGEENKENERPSAGSKANKEFGDSLSLEILQIIKESQQQHGLRHGDFQRYRGYCSRRQRRLRKTLNFKMGNRHKFTGKKVTEELLTDNRYLLLVLMDAERAWSYAMQLKQEANTEPRKRFHLLSRLRKAVKHAEELERLCESNRVDAKTKLEAQAYTAYLSGMLRFEHQEWKAAIEAFNKCKTIYEKLASAFTEEQAVLYNQRVEEISPNIRYCAYNIGDQSAINELMQMRLRSGGTEGLLAEKLEALITQTRAKQAATMSEVEWRGRTVPVKIDKVRIFLLGLADNEAAIVQAESEETKERLFESMLSECRDAIQVVREELKPDQKQRDYILEGEPGKVSNLQYLHSYLTYIKLSTAIKRNENMAKGLQRALLQQQPEDDSKRSPRPQDLIRLYDIILQNLVELLQLPGLEEDKAFQKEIGLKTLVFKAYRCFFIAQSYVLVKKWSEALVLYDRVLKYANEVNSDAGAFKNSLKDLPDVQELITQVRSEKCSLQAAAILDANDAHQTETSSSQVKDNKPLVERFETFCLDPSLVTKQANLVHFPPGFQPIPCKPLFFDLALNHVAFPPLEDKLEQKTKSGLTGYIKGIFGFRS [SRP68]”: the melting temperature was determined as 50.7 °C in data set [1] (cell cycle stage: G1/S) and 49.4 °C in data set [1] (cell cycle stage: mitosis). In addition, the “solubility in G1/S (log2)” value in data set [2] is -0.033. In data set [3], the “solubility change mitosis (log2)” value worked out at 0.209. Also, the thermal stability score in data set [4] (setting [5]) is -0.295; in data set [4] (cell cycle stage: mitosis), -0.156.

In the case of “MAAEPLTELEESIETVVTTFFTFARQEGRKDSLSVNEFKELVTQQLPHLLKDVGSLDEKMKSLDVNQDSELKFNEYWRLIGELAKEIRKKKDLKIRKK [S100A13]”, the values for the melting temperature in data set [1] (cell cycle stage: G1/S) and in data set [1] (cell cycle stage: mitosis) were 53.4 °C and 52 °C, respectively. Further, the “solubility in G1/S (log2)” value in data set [2] is -0.421. Further, the “solubility change mitosis (log2)” value in data set [3] amounted to 0.294. Moreover, the thermal stability score in data set [4] (setting [5]) was -6.56; in data set [4] (cell cycle stage: mitosis), -6.62.

Consider “MAAESGSDFQQRRRRRRDPEEPEKTELSERELAVAVAVSQENDEENEERWVGPLPVEATLAKKRKVLEFERVYLDNLPSASMYERSYMHRDVITHVVCTKTDFIITASHDGHVKFWKKIEEGIEFVKHFRSHLGVIESIAVSSEGALFCSVGDDKAMKVFDVVNFDMINMLKLGYFPGQCEWIYCPGDAISSVAASEKSTGKIFIYDGRGDNQPLHIFDKLHTSPLTQIRLNPVYKAVVSSDKSGMIEYWTGPPHEYKFPKNVNWEYKTDTDLYEFAKCKAYPTSVCFSPDGKKIATIGSDRKVRIFRFVTGKLMRVFDESLSMFTELQQMRQQLPDMEFGRRMAVERELEKVDAVRLINIVFDETGHFVLYGTMLGIKVINVETNRCVRILGKQENIRVMQLALFQGIAKKHRAATTIEMKASENPVLQNIQADPTIVCTSFKKNRFYMFTKREPEDTKSADSDRDVFNEKPSKEEVMAATQAEGPKRVSDSAIIHTSMGDIHTKLFPVECPKTVENFCVHSRNGYYNGHTFHRIIKGFMIQTGDPTGTGMGGESIWGGEFEDEFHSTLRHDRPYTLSMANAGSNTNGSQFFITVVPTPWLDNKHTVFGRVTKGMEVVQRISNVKVNPKTDKPYEDVSIINITVK [PPWD1]”, for which the melting temperature in data set [1] (cell cycle stage: G1/S) was 49.7 °C; in data set [1] (cell cycle stage: mitosis) it was 49.8 °C. Also, the “solubility in G1/S (log2)” value in data set [2] was -0.381. In addition, the “solubility change mitosis (log2)” value in data set [3] is -0.0306. Also, the thermal stability score in data set [4] (setting [5]) is 0.382; in data set [4] (cell cycle stage: mitosis), 0.58.

(Values after the supplement of paper PMC5998384.)
